Laboratory results taken from patent US20260226142A1.

Target: Cys-HLA (Staphylococcus aureus)

B1: Bm28H12 (VHH)
VHH: QVQLVESGGSVVQAGGSLRLSCTASGRNFNSYAMGWFRRPPGEQRDFIAAIIRSTGKTTYADSDSVKGRFTISKDSSGNTVYLQMNNLKPEDTAIYYCAGGDAGPYAFGYDYWGQGTQVTVSS
B1 was tested, and the Kd was 0.1 nM.
